Blank lines part the entries; values can stand above or below the substance they belong to.
How the values were obtained:
[1] = target: D3H44 light chain Q124E_V133W_T180E, N-terminal HA or FLAG tag; experiment: LCCA, SPR of light chain tags, L1:L2 DNA 1:3 norm. to 1:1; other light chain m14
[2] = target: D3H44 light chain Q124R_T178R, N-terminal HA or FLAG tag; experiment: LCCA, SPR of light chain tags, L1:L2 DNA 1:3 norm. to 1:1; other light chain m25
[3] = target: D3H44 light chain Q124E_Q160E_T180E, N-terminal HA or FLAG tag; experiment: LCCA, L1:L2 DNA 1:9, SPR of light chain tags; competing light chain m12
[4] = target: D3H44 light chain Q124R_T178K, N-terminal HA or FLAG tag; experiment: LCCA, L1:L2 DNA 1:3, SPR of light chain tags; competing light chain m11
[5] = target: D3H44 light chain Q124R_T178R, N-terminal HA or FLAG tag; experiment: as above
[6] = target: D3H44 light chain Q124R_Q160K_T178R, N-terminal HA or FLAG tag; experiment: LCCA, L1:L2 DNA 1:3, SPR of light chain tags; competing light chain m13
[7] = target: D3H44 light chain T178R, N-terminal HA or FLAG tag; experiment: as above
[8] = target: D3H44 light chain Q124E_Q160E_T180E, N-terminal HA or FLAG tag; experiment: LCCA, L1:L2 DNA 1:3, SPR of light chain tags; competing light chain m16
[9] = target: D3H44 light chain Q124E_Q160E_T180E, N-terminal HA or FLAG tag; experiment: LCCA, L1:L2 DNA 1:9, SPR of light chain tags; competing light chain m16
[10] = target: D3H44 light chain Q124E_T180E, N-terminal HA or FLAG tag; experiment: LCCA, L1:L2 DNA 1:3, SPR of light chain tags; competing light chain m10
[11] = target: D3H44 light chain Q124R_T178K, N-terminal HA or FLAG tag; experiment: LCCA, L1:L2 DNA 1:9, SPR of light chain tags; competing light chain m11
[12] = target: D3H44 light chain Q124R_T178R, N-terminal HA or FLAG tag; experiment: as above
[13] = target: D3H44 light chain Q124E_T180E, N-terminal HA or FLAG tag; experiment: LCCA, L1:L2 DNA 1:3, SPR of light chain tags; competing light chain m14
[14] = target: D3H44 light chain Q124E_Q160E_T180E, N-terminal HA or FLAG tag; experiment: LCCA, L1:L2 DNA 1:3, SPR of light chain tags; competing light chain m12
[15] = target: D3H44 light chain T178R (Kabat) with N-terminal HA or FLAG tag; experiment: LCCA, SPR read-out of light-chain tags; light-chain DNA 1:3 normalized to 1:1; competing light chain m17
[16] = target: D3H44 light chain Q124R_Q160K_T178R (Kabat) with N-terminal HA or FLAG tag; experiment: as above
[17] = target: D3H44 light chain Q124K_T178R (Kabat) with N-terminal HA or FLAG tag; experiment: as above
[18] = target: D3H44 light chain Q124E_Q160E_T180E (Kabat) with N-terminal HA or FLAG tag; experiment: LCCA, SPR read-out of light-chain tags; light-chain DNA 1:3 normalized to 1:1; competing light chain m16
[19] = target: D3H44 light chain Q124E_Q160E_T180E (Kabat) with N-terminal HA or FLAG tag; experiment: LCCA, SPR read-out of light-chain tags; light-chain DNA 1:3 normalized to 1:1; competing light chain m20
[20] = target: D3H44 light chain Q124E_S131T_T178F_T180E (Kabat) with N-terminal HA or FLAG tag; experiment: as above
[21] = target: D3H44 light chain T178R (Kabat) with N-terminal HA or FLAG tag; experiment: LCCA, SPR read-out of light-chain tags; light-chain DNA 1:3 normalized to 1:1; competing light chain m19
[22] = target: D3H44 light chain Q124R_Q160K_T178R (Kabat) with N-terminal HA or FLAG tag; experiment: LCCA, SPR read-out of light-chain tags; light-chain DNA 1:3 normalized to 1:1; competing light chain m22
[23] = target: D3H44 light chain Q124E_Q160E_T180E (Kabat) with N-terminal HA or FLAG tag; experiment: LCCA, SPR read-out of light-chain tags; light-chain DNA 1:3 normalized to 1:1; competing light chain m18
[24] = target: D3H44 light chain Q124E_T180E (Kabat) with N-terminal HA or FLAG tag; experiment: as above
[25] = target: tissue factor (TF) antigen (UniProt P13726); experiment: SPR KD against wild-type D3H44 Fab; * estimated value (estimated wild-type KD […])
[26] = target: tissue factor (TF) antigen (UniProt P13726); experiment: SPR (ProteOn), Fab captured on anti-penta-His, TF analyte, 1:1 fit; * estimated from a Fab differing only in the L chain tag
[27] = target: tissue factor (TF) antigen (UniProt P13726); experiment: SPR, Fab captured on anti-penta-His surface, TF as analyte, 1:1 fit; estimated value, from a Fab that differs only in the L chain tag
[28] = target: tissue factor (TF) antigen (UniProt P13726); experiment: SPR, Fab captured on anti-penta-His surface, TF as analyte, 1:1 fit; estimated value, from a Fab that differs only in the L chain tag; against wild-type D3H44 Fab
[29] = target: tissue factor (TF) antigen (UniProt P13726); experiment: SPR, Fab captured on anti-penta-His surface, TF as analyte, 1:1 fit; Fab batch C
[30] = target: tissue factor (TF) antigen (UniProt P13726); experiment: SPR, Fab captured on anti-penta-His surface, TF as analyte, 1:1 fit; Fab batch C; against wild-type D3H44 Fab
[31] = target: tissue factor (TF) antigen (UniProt P13726); experiment: vs wild-type D3H44 Fab (KD 0.157 nM); SPR, Fab captured on anti-penta-His, TF as analyte; batch C (+)
[32] = target: tissue factor (TF) antigen (UniProt P13726); experiment: SPR, Fab captured on anti-penta-His, TF as analyte, 1:1 fit; batch C (+)
[33] = target: tissue factor (TF) antigen (UniProt P13726); experiment: SPR (ProteOn), Fab captured on anti-penta-His, TF analyte, 1:1 fit
[34] = target: tissue factor (TF) antigen (UniProt P13726); experiment: SPR KD against wild-type D3H44 Fab (reference KD 0.157 nM)
[35] = target: D3H44 light chain Q124R_T178R, N-terminal HA or FLAG tag; experiment: LCCA, SPR of light chain tags, L1:L2 DNA 1:3 norm. to 1:1; other light chain m16
[36] = target: D3H44 light chain Q124E_T178E_T180E, N-terminal HA or FLAG tag; experiment: LCCA, SPR of light chain tags, L1:L2 DNA 1:3 norm. to 1:1; other light chain m17
[37] = target: D3H44 light chain Q124E_S176L_T180E, N-terminal HA or FLAG tag; experiment: LCCA, SPR of light chain tags, L1:L2 DNA 1:3 norm. to 1:1; other light chain m14
[38] = target: D3H44 light chain Q124R_Q160K_T178R, N-terminal HA or FLAG tag; experiment: LCCA, SPR of light chain tags, L1:L2 DNA 1:9 norm. to 1:1; other light chain m21
[39] = target: D3H44 light chain Q124E_T178E_T180E, N-terminal HA or FLAG tag; experiment: LCCA, SPR of light chain tags, L1:L2 DNA 1:9 norm. to 1:1; other light chain m17
[40] = target: D3H44 light chain Q124R_Q160K_T178R, N-terminal HA or FLAG tag; experiment: LCCA, SPR of light chain tags, L1:L2 DNA 1:3 norm. to 1:1; other light chain m21
[41] = target: D3H44 light chain Q124E_V133G_S176D_T178E_T180E (Kabat), N-terminal HA or FLAG tag; experiment: LCCA co-expression, competing light chain m24, L1:L2 DNA 1:3 normalized to 1:1, SPR tag read-out
[42] = target: D3H44 light chain Q124K_V133G_S176R_T178K (Kabat), N-terminal HA or FLAG tag; experiment: LCCA co-expression, competing light chain m25, L1:L2 DNA 1:3 normalized to 1:1, SPR tag read-out

Substance: D3H44 Fab heavy chain L124A_Q179K, ABD2-His6 tagged
H1L1:H1L2 normalized median ratio [1]: 95%
H1L1:H1L2 normalized median scalar value ln(r1/f1) [1]: 2.9
H1L1:H1L2 normalized median ratio [2]: 5%

Substance: D3H44 Fab heavy chain S186R, C-terminal ABD2-His6 tag
H2L2:H2L1 normalized median ratio [3]: 86 share of 100
H2L2:H2L1 normalized median ratio [4]: 17 share of 100
H2L2:H2L1 normalized median ratio [5]: 19 share of 100
H2L2:H2L1 normalized median ratio [6]: 2 share of 100
H2L2:H2L1 normalized median ratio [7]: 4 share of 100
H2L2:H2L1 normalized median ratio [8]: 83 share of 100
H2L2:H2L1 normalized median ratio [9]: 89 share of 100
H2L2:H2L1 normalized median ratio [10]: 96 share of 100
H2L2:H2L1 normalized median ratio [11]: 11 share of 100
H2L2:H2L1 normalized median ratio [12]: 14 share of 100
H2L2:H2L1 normalized median ratio [13]: 98 share of 100
H2L2:H2L1 normalized median ratio [14]: 81 share of 100

Substance: D3H44 Fab heavy chain S186K (Kabat) with C-terminal ABD2-His6 tag
H2L2:H2L1 normalized median ratio [15]: 9%
H2L2:H2L1 normalized median ratio [16]: 19%
H2L2:H2L1 normalized median ratio [17]: 17%
H2L2:H2L1 normalized median ratio [18]: 83%
H2L2:H2L1 normalized median ratio [19]: 81%
H2L2:H2L1 normalized median ratio [20]: 96%
H2L2:H2L1 normalized median ratio [21]: 4%
H2L2:H2L1 normalized median ratio [22]: 4%
H2L2:H2L1 normalized median ratio [23]: 91%
H2L2:H2L1 normalized median ratio [24]: 96%

Substance: D3H44 Fab heterodimer, H: L143E_K145T_Q179D, L: Q124R_T178K (H1L1 Fab of LCCA set 9629)
Change in KD with respect to wild type (-(log(KD design) - log(KD wt))) [25]: 0.12
Kd [26]: 0.12 nM

Substance: D3H44 Fab heavy chain L124A_S186K, ABD2-His6 tagged
H1L1:H1L2 normalized median ratio [1]: 95%
H1L1:H1L2 normalized median scalar value ln(r1/f1) [1]: 2.98
H1L1:H1L2 normalized median ratio [2]: 5%

Substance: H1L1 Fab heterodimer of LCCA sets 9801 and 9802 (D3H44 Fab, H1 Q179R, L1 Q124E_Q160E_T178E)
change in median KD compared to wild type, -(log(KD design)-log(KD wt)) [31]: 0.16
Kd [32]: 0.11 nM

Substance: D3H44 Fab heavy chain S186R, ABD2-His6 tagged
H2L2:H2L1 normalized median ratio [35]: 7%
H2L2:H2L1 normalized median ratio [36]: 94%
H2L2:H2L1 normalized median ratio [37]: 93%
H2L2:H2L1 normalized median ratio [38]: 13%
H2L2:H2L1 normalized median ratio [39]: 87%
H2L2:H2L1 normalized median ratio [40]: 6%

Substance: H1L1 Fab heterodimer of LCCA set 9620 (D3H44 Fab, H1 L143E_K145T_Q179D, L1 Q124R_Q160K_T178R)
change in median KD compared to wild type, -(log(KD design)-log(KD wt)) [31]: 0.39
Kd [32]: 0.06 nM

Substance: D3H44 Fab heavy chain L124R_D146N_Q179K (Kabat), C-terminal ABD2-His6 tag
H2L2:H2L1 normalized median ratio [41]: 84 of 100
H2L2:H2L1 normalized median ratio [42]: 16 of 100

Other lines, results leading:

Kd [27]: 0.24 nM
change in median KD compared to wild type, -(log(KD design)-log(KD wt)) [28]: -0.19
Substance: D3H44 H1L1 Fab heterodimer of LCCA Set # 9707 (H1 L143E_K145T_S188L; L1 Q124R_Q160K_T178R)

Kd [27]: 0.12 nM
change in median KD compared to wild type, -(log(KD design)-log(KD wt)) [28]: 0.12
Kd [29]: 0.12 nM
change in median KD compared to wild type, -(log(KD design)-log(KD wt)) [30]: 0.12
Substance: D3H44 H1L1 Fab heterodimer of LCCA Set # 9626 (H1 L143E_K145T_Q179D; L1 Q124R_T178K)

Change in KD with respect to wild type (-(log(KD design) - log(KD wt))) [25]: 0.39
Kd [26]: 0.06 nM
Substance: D3H44 Fab heterodimer, H: L143E_K145T_Q179D, L: Q124R_Q160K_T178R (H1L1 Fab of LCCA set 9623)

change in median KD compared to wild type, -(log(KD design)-log(KD wt)) [31]: 0.02
Kd [32]: 0.15 nM
Substance: H1L1 Fab heterodimer of LCCA set 9654 (D3H44 Fab, H1 L143E_K145T_Q179E, L1 Q124R_Q160K_T178R)

Change in KD with respect to wild type (-(log(KD design) - log(KD wt))) [25]: -0.23
Kd [33]: 0.27 nM
Kd [26]: 0.27 nM
Change in KD with respect to wild type (-(log(KD design) - log(KD wt))) [34]: -0.23
Substance: D3H44 Fab heterodimer, H: L143E_K145T_Q179E, L: Q124R_T178R (H1L1 Fab of LCCA sets 9663, 9666, 9667, 9671, 9675, 9679 and 9682)

Kd [27]: 0.19 nM
change in median KD compared to wild type, -(log(KD design)-log(KD wt)) [28]: -0.08
Kd [29]: 0.19 nM
change in median KD compared to wild type, -(log(KD design)-log(KD wt)) [30]: -0.08
Substance: D3H44 H1L1 Fab heterodimer of LCCA Set # 9657 (H1 L143E_K145T_Q179E; L1 Q124R_T178K)

H1L1:H1L2 normalized median ratio [41]: 17 of 100
H1L1:H1L2 normalized median ratio [42]: 83 of 100
H1L1:H1L2 normalized median scalar value ln(r1/f1) [42]: 1.59
Substance: D3H44 Fab heavy chain L124E_L143D_K145M (Kabat), C-terminal ABD2-His6 tag

Reference: patent US11306156
